The text below walks through data of US20110105733A1 (Ablynx, published 2011).

For this test, the target named is T1, rat Jagged-1 (rrJagged-1, R&D Systems Cat #599-JG) (rat, UniProt Q63722 34-1067).
T1 construct: extracellular domain; Bought reagent; also called non-biotinylated Jagged-1; cold-jagged1
Description: ELISA: rat Jagged-1 (rrJagged-1) coated at 2 ug/mL, Nanobody series, detection by mouse anti-Myc tag and DAMPO, OD 490 nm. The method, then:
Two rounds of phage display selection were performed similarly as described above. Binding assays were performed. In short: Maxisorp plate was coated with 100 ul 2 ug/ml of rrJagged-1 (R&D systems) in PBS O/N at 4 C. After washing the plate 4× with PBS the plate was blocked with 4% Marvel in PBS for 30 minutes on shaker. A concentration series of Nanobody (1-1000 nM) was added in 100 ul 2% Marvell/PBS and incubate for 1 hour on shaker. After washing the plate 4× with PBS the Nanobodies were detected with 100 ul 1:5000 Mouse-anti-MycTag in 2% Marvell/PBS for 1 hour and 100 ul 1:5000 DAMPO in 2% Marvell/PBS for 1 hour. After washing the DAMPO was detected with 100 ul OPD, stopped with 50 ul H2SO4 and quantification was performed at 490 nm in a plate reader.

B1: 178A7 (VHH)
VHH: EVQLVESGGGLVQPGGSLRLSCATSGVIFSTAAMGWYRQAPGKSRVLVARMFSDGRTIYAESVKRRFTISRDNAKNTVYLQMNSLEPEDTAVYYCNALQFGAVYWGQGTQVTVSS
notes: Nanobody against rat Jagged-1; not shown: C-terminal c-myc tag and His6 tag coded by vector pAX50
On to B1, for which the “EC50 (read off the curve)” value is roughly 20 nM.

B2: 178D9 (VHH)
VHH: EVQLVKSGGGLVQPGGSLRLSCAASGSIVSANLIGWYRQAPGKQREGVAFITSGGAINYADSVKGRFTISRDDAKNTVYLQMNSLKPEDTAIYYCNLRQLGNVYWAQGTQVTVSS
notes: as for B1
In the case of B2, the binding result is listed as “binds”.
